{"source": "the Human Domainome abundance scans (Beltran et al. 2025)", "parents": {"B1": {"name": "Histone H1t, residues 44 to 112; numbered along this chain, P22492 (parent)", "chain": "VSKLITEALSVSQERVGMSLVALKKALAAAGYDVEKNNSRIKLSLKSLVNKGILVQTRGTGASGSFKLS"}}, "note": "± gives the uncertainty stated by the source."}
{"variants_of": "B1", "test": "abundance fitness (aPCA) (normalised: wild type 0, dead -1); higher = more abundant; growth selection in yeast, the domain comes from the species named", "details": "Homo sapiens"}
{"variant": "VSKLITEALSVSQERVGMSLVALKKALAAAGYDVEKNNSRIKLSLKSLVNKGILVQTRGTGASGSFDLS", "note": "[K67D]", "abundance fitness": "-0.174 ± 0.05"}
{"variant": "VSKLITEALSVSQERVGMSLVALKKALAAAGYDVEKNNSRIKLSLKSLVNKGILVQTRGTGASGSFILS", "note": "[K67I]", "abundance fitness": "-0.192 ± 0.06"}
{"variant": "VSKLITEALSVSQERVGMSLVALKKALAAAGYDVEKNNSRIKLSLKSLVNKGILVQTRGTGASGSFRLS", "note": "[K67R]", "abundance fitness": "-0.035 ± 0.039"}
{"variant": "VSKLITEALSVSQERVGMSLVALKKALAAAGYDVEKNNSRIKLSLKSLVNKGILVQTRGTGASGSFHLS", "note": "[K67H]", "abundance fitness": "-0.148 ± 0.081"}
{"variant": "VSKLITEALSVSQERVGMSLVALKKALAAAGYDVEKNNSRIKLSLKSLVNKGILVQTRGTGASGSFKES", "note": "[L68E]", "abundance fitness": "-0.099 ± 0.068"}
{"variant": "VSKLITEALSVSQERVGMSLVALKKALAAAGYDVEKNNSRIKLSLKSLVNKGILVQTRGTGASGSFKHS", "note": "[L68H]", "abundance fitness": "-0.369 ± 0.071"}
{"variant": "VSKLITEALSVSQERVGMSLVALKKALAAAGYDVEKNNSRIKLSLKSLVNKGILVQTRGTGASGSFKDS", "note": "[L68D]", "abundance fitness": "-0.147 ± 0.067"}
{"variant": "VSKLITEALSVSQERVGMSLVALKKALAAAGYDVEKNNSRIKLSLKSLVNKGILVQTRGTGASGSFKTS", "note": "[L68T]", "abundance fitness": "-0.067 ± 0.061"}
{"variant": "VSKLITEALSVSQERVGMSLVALKKALAAAGYDVEKNNSRIKLSLKSLVNKGILVQTRGTGASGSFKYS", "note": "[L68Y]", "abundance fitness": "-0.185 ± 0.042"}
{"variant": "VSKLITEALSVSQERVGMSLVALKKALAAAGYDVEKNNSRIKLSLKSLVNKGILVQTRGTGASGSFKKS", "note": "[L68K]", "abundance fitness": "-0.064 ± 0.058"}
{"variant": "VSKLITEALSVSQERVGMSLVALKKALAAAGYDVEKNNSRIKLSLKSLVNKGILVQTRGTGASGSFKAS", "note": "[L68A]", "abundance fitness": "-0.176 ± 0.044"}
{"variant": "VSKLITEALSVSQERVGMSLVALKKALAAAGYDVEKNNSRIKLSLKSLVNKGILVQTRGTGASGSFKMS", "note": "[L68M]", "abundance fitness": "-0.082 ± 0.037"}
{"variant": "VSKLITEALSVSQERVGMSLVALKKALAAAGYDVEKNNSRIKLSLKSLVNKGILVQTRGTGASGSFKFS", "note": "[L68F]", "abundance fitness": "-0.1 ± 0.03"}
{"variant": "VSKLITEALSVSQERVGMSLVALKKALAAAGYDVEKNNSRIKLSLKSLVNKGILVQTRGTGASGSFKQS", "note": "[L68Q]", "abundance fitness": "-0.327 ± 0.069"}
{"variant": "VSKLITEALSVSQERVGMSLVALKKALAAAGYDVEKNNSRIKLSLKSLVNKGILVQTRGTGASGSFKWS", "note": "[L68W]", "abundance fitness": "-0.121 ± 0.041"}
{"variant": "VSKLITEALSVSQERVGMSLVALKKALAAAGYDVEKNNSRIKLSLKSLVNKGILVQTRGTGASGSFKCS", "note": "[L68C]", "abundance fitness": "-0.202 ± 0.057"}
{"variant": "VSKLITEALSVSQERVGMSLVALKKALAAAGYDVEKNNSRIKLSLKSLVNKGILVQTRGTGASGSFKSS", "note": "[L68S]", "abundance fitness": "-0.115 ± 0.039"}
{"variant": "VSKLITEALSVSQERVGMSLVALKKALAAAGYDVEKNNSRIKLSLKSLVNKGILVQTRGTGASGSFKNS", "note": "[L68N]", "abundance fitness": "-0.149 ± 0.069"}
{"variant": "VSKLITEALSVSQERVGMSLVALKKALAAAGYDVEKNNSRIKLSLKSLVNKGILVQTRGTGASGSFKRS", "note": "[L68R]", "abundance fitness": "-0.138 ± 0.039"}
{"variant": "VSKLITEALSVSQERVGMSLVALKKALAAAGYDVEKNNSRIKLSLKSLVNKGILVQTRGTGASGSFKIS", "note": "[L68I]", "abundance fitness": "-0.223 ± 0.045"}
{"variant": "VSKLITEALSVSQERVGMSLVALKKALAAAGYDVEKNNSRIKLSLKSLVNKGILVQTRGTGASGSFKGS", "note": "[L68G]", "abundance fitness": "-0.049 ± 0.037"}
{"variant": "VSKLITEALSVSQERVGMSLVALKKALAAAGYDVEKNNSRIKLSLKSLVNKGILVQTRGTGASGSTKLS", "note": "[F66T]", "abundance fitness": "-0.129 ± 0.035"}
{"variant": "VSKLITEALSVSQERVGMSLVALKKALAAAGYDVEKNNSRIKLSLKSLVNKGILVQTRGTGASGSVKLS", "note": "[F66V]", "abundance fitness": "-0.078 ± 0.041"}
{"variant": "VSKLITEALSVSQERVGMSLVALKKALAAAGYDVEKNNSRIKLSLKSLVNKGILVQTRGTGASGSSKLS", "note": "[F66S]", "abundance fitness": "-0.108 ± 0.033"}
{"variant": "VSKLITEALSVSQERVGMSLVALKKALAAAGYDVEKNNSRIKLSLKSLVNKGILVQTRGTGASGSWKLS", "note": "[F66W]", "abundance fitness": "-0.064 ± 0.046"}
{"variant": "VSKLITEALSVSQERVGMSLVALKKALAAAGYDVEKNNSRIKLSLKSLVNKGILVQTRGTGASGSYKLS", "note": "[F66Y]", "abundance fitness": "-0.046 ± 0.063"}
{"variant": "VSKLITEALSVSQERVGMSLVALKKALAAAGYDVEKNNSRIKLSLKSLVNKGILVQTRGTGASGSFKLL", "note": "[S69L]", "abundance fitness": "-0.128 ± 0.035"}
{"variant": "VSKLITEALSVSQERVGMSLVALKKALAAAGYDVEKNNSRIKLSLKSLVNKGILVQTRGTGASGSFKLY", "note": "[S69Y]", "abundance fitness": "0.171 ± 0.08"}
{"variant": "VSKLITEALSVSQERVGMSLVALKKALAAAGYDVEKNNSRIKLSLKSLVNKGILVQTRGTGASGSFKLR", "note": "[S69R]", "abundance fitness": "-0.151 ± 0.041"}
{"variant": "VSKLITEALSVSQERVGMSLVALKKALAAAGYDVEKNNSRIKLSLKSLVNKGILVQTRGTGASGSFKLN", "note": "[S69N]", "abundance fitness": "-0.055 ± 0.048"}
{"variant": "VSKLITEALSVSQERVGMSLVALKKALAAAGYDVEKNNSRIKLSLKSLVNKGILVQTRGTGASGSFKLI", "note": "[S69I]", "abundance fitness": "-0.156 ± 0.096"}
{"variant": "VSKLITEALSVSQERVGMSLVALKKALAAAGYDVEKNNSRIKLSLKSLVNKGILVQTRGTGASGSFKLH", "note": "[S69H]", "abundance fitness": "-0.465 ± 0.21"}
{"variant": "VSKLITEALSVSQERVGMSLVALKKALAAAGYDVEKNNSRIKLSLKSLVNKGILVQTRGTGASGSFKLQ", "note": "[S69Q]", "abundance fitness": "-0.102 ± 0.091"}
{"variant": "VSKLITEALSVSQERVGMSLVALKKALAAAGYDVEKNNSRIKLSLKSLVNKGILVQTRGTGASGSFKLW", "note": "[S69W]", "abundance fitness": "0.173 ± 0.05"}
{"variant": "VSKLITEALSVSQERVGMSLVALKKALAAAGYDVEKNNSRIKLSLKSLVNKGILVQTRGTGASGSFKLM", "note": "[S69M]", "abundance fitness": "-0.186 ± 0.058"}
{"variant": "VSKLITEALSVSQERVGMSLVALKKALAAAGYDVEKNNSRIKLSLKSLVNKGILVQTRGTGASGSFKLV", "note": "[S69V]", "abundance fitness": "-0.093 ± 0.056"}
{"variant": "VSKLITEALSVSQERVGMSLVALKKALAAAGYDVEKNNSRIKLSLKSLVNKGILVQTRGTGASGSFKLA", "note": "[S69A]", "abundance fitness": "0.044 ± 0.049"}
{"variant": "VSKLITEALSVSQERVGMSLVALKKALAAAGYDVEKNNSRIKLSLKSLVNKGILVQTRGTGASGSFKLK", "note": "[S69K]", "abundance fitness": "-0.012 ± 0.095"}
{"variant": "VSKLITEALSVSQERVGMSLVALKKALAAAGYDVEKNNSRIKLSLKSLVNKGILVQTRGTGASGSFKLF", "note": "[S69F]", "abundance fitness": "-0.058 ± 0.075"}
{"variant": "VSKLITEALSVSQERVGMSLVALKKALAAAGYDVEKNNSRIKLSLKSLVNKGILVQTRGTGASGSFKLG", "note": "[S69G]", "abundance fitness": "-0.218 ± 0.087"}
{"variant": "VSKLITEALSVSQERVGMSLVALKKALAAAGYDVEKNNSRIKLSLKSLVNKGILVQTRGTGASGSFKLE", "note": "[S69E]", "abundance fitness": "0.119 ± 0.097"}
{"variant": "VSKLITEALSVSQERVGMSLVALKKALAAAGYDVEKNNSRIKLSLKSLVNKGILVQTRGTGASGSFKLP", "note": "[S69P]", "abundance fitness": "-0.115 ± 0.039"}
{"variant": "VSKLITEALSVSQERVGMSLVALKKALAAAGYDVEKNNSRIKLSLKSLVNKGILVQTRGTGASGSFKLC", "note": "[S69C]", "abundance fitness": "-0.246 ± 0.054"}
{"variant": "VSKLITEALSVSQERVGMSLVALKKALAAAGYDVEKNNSRIKLSLKSLVNKGILVQTRGTGASGSFKLD", "note": "[S69D]", "abundance fitness": "-0.192 ± 0.13"}
{"variant": "VSKLITEALSVSQERVGMSLVALKKALAAAGYDVEKNNSRIKLSLKSLVNKGILVQTRGTGASGSFKLT", "note": "[S69T]", "abundance fitness": "-0.029 ± 0.044"}
